Test system: Caco-2 monolayers
Experiment: Transport of FITC-insulin across Caco-2 monolayer
Type: in vitro ADME, human
Protocol: Caco-2 cell line HTB-37 (American Type Culture Collection, Rockville, Md.), derived from human colon cells, was used for all experiments. Cells were maintained at 37° C. in DMEM supplemented with 25 IU/ml of penicillin, 25 mg/L of streptomycin, 250 μg/L of amphotericin B and 100 ml/L of fetal bovine serum. Monolayers were grown on BD Biocoat™ collagen filter supports (Discovery Labware, Bedford. Mass.). […] At the end of the growth period, the integrity of the cell monolayer was confirmed by transepithelial electrical resistance (TEER) measurements (Millicell-ERS voltohmmeter, Millipore. Billerica, Mass.). Only monolayers with TEER values over 300 Ω cm^2 were used for further experimentation. A solution of FITC-insulin in DMEM was placed on Caco-2 monolayers at various concentrations and samples were collected from the basolateral side and analyzed for fluorescence. To determine insulin transport from wafers, FITC-insulin-containing wafers were placed on Caco-2 monolayers. Samples were taken from the basolateral side and analyzed for insulin concentration.

insulin free in solution: solution of FITC-insulin in DMEM placed on Caco-2 monolayers
transport of insulin across Caco-2 monolayers: dose-dependent

— patent US20150174076A1, “MUCOADHESIVE DEVICES FOR DELIVERY OF ACTIVE AGENTS” (Entrega, Inc., priority 2012, published 2015)
